Experiment: label from the status in PepcDB records

Row | Sequence | protein production
1 | MAAKQGESDPERKETRQKVDDDRKHEIEAAIVRIMKSRKKMQHNVLVAEVTQQLKARFLPSPVVIKKRIEGLIEREYLARTPEDRKVYTYVA | not failed
2 | MAAPEAEVLSSAAVPDLEWYEKSEETHASQIELLETSSTQEPLNASEAFCPRDCMVPVVFPGPVSQEGCCQFTCELLKHIMYQRQQLPLPYEQLKHFYRKPSPQAEEMLKKKPRATTEVSSRKCQQALAELESVLSHLEDFFARTLVPRVLILLGGNALSPKEFYELDLSLLAPYSVDQSLSTAACLRRLFRAIFMADAFSELQAPPLMGTVVMAQGHRNCGEDWFRPKLNYRVPSRGHKLTVTLSCGRPSIRTTAWEDYIWFQAPVTFKGFRE | not failed
3 | MAAQVEIEDQESVTNLDNGEIINPISDNAPNFSGDATILLREATFEHNLIKNCFLSGMGSFATETTIVTVRKILTQRLITTKAKFAVFKLFTEAMKRKNNGYANIRYGWYSGSKEEIDRVITYGFSNREIKKVENDVGSHGVGIHLVHHRYSLAAALVGEGDEEGIKNILLCRVILGKPEQIVTGSKQSYPSSNQFDSGVDNLENPRKYVIWSCNMNSYILPTYIVSFKSHLLRGLIGRARSPCVSFSVLMSILSKSLDAARMNLILTSYDDFRKRKLRREQLVRKIREVVGDNLLFKILKNQRR | not failed
4 | MAARNAFYAQSGGVTAVINASACGVLETARQYPDRIGTVYAGRNGIVGALTEDLIDTGQESAEAIAALRHTPSGAFGSCRYKLKGLEENRAQYERLIEVFRAHDIGYFFYNGGGDSADTCLKVSQLSEKLGYPLQAVHIPKTVDNDLPITDCCPGFGSVAKYIAVSVREASFDVRSMAATSTCIFVLEVMGRHAGWIAAAGGLASDERHELALVILFPEQVFDPERFLRAVDEKVRSHGYCSVVVSEGIRGADGRFVAESGSRDVFGHARLGGVAPVIADLIKERLGYKYHWAVADYLQRAARHIASRTDVEQAYAVGKAGVEMALKGLSAVMPAIVRTSDSPYRWEITAASLAEVANVEKKMPLEFISADGFGITEACRRYLRPLIEGEDYPPYAGGLPDYVTLCNVAVPKKLAASFSV | failed
5 | MAASAAATAAASAATAASAASGSPGSGEGSAGGEKRPAASSAAAASAAASSPAGGGGEAQELLEHCGVCRERLRPERDPRLLPCLHSACSACLGPATPAAANNSGDGGSAGDGAMVDCPVCKQQCYSKDIVENYFMRDSGSKASSDSQDANQCCTSCEDNAPATSYCVECSEPLCETCVEAHQRVKYTKDHTVRSTGPAKTRDGERTVYCNVHKHEPLVLFCESCDTLTCRDCQLNAHKDHQYQFLEDAVRNQRKLLASLVKRLGDKHATLQKNTKEVRSSIRQVSDVQKRVQVDVKMAILQIMKELNKRGRVLVNDAQKVTEGQQERLERQHWTMTKIQKHQEHILRFASWALESDNNTALLLSKKLIYFQLHRALKMIVDPVEPHGEMKFQWDLNAWTKSAEAFGKIVAERPGTNSTGPGPMAPPRAPGPLSKQGSGSSQPMEVQEGYGFGSDDPYSSAEPHVSGMKRSRSGEGEVSGLLRKVPRVSLERLDLDLTSDSQPPVFKVFPGSTTEDYNLIVIERGAAAAAAGQAGTVPPGAPGAPPLPGMAIVKEEETEAAIGAPPAAPEGPETKPVLMPLTEGPGAEGPRLASPSGSTSSGLEVVAPEVTSAPVSGPGILDDSATICRVCQKPGDLVMCNQCEFCFHLDCHLPALQDVPGEEWSCSLCHVLPDLKEEDGSLSLDGADSTGVVAKLSPANQRKCERVLLALFCHEPCRPLHQLATDSTFSMEQPGGTLDLTLIRARLQEKLSPPYSSPQEFAQDVGRMFKQFNKLTEDKADVQSIIGLQRFFETRMNDAFGDTKFSAVLVEPPPLNLPSAGLSSQELSGPGDGP | not failed
6 | MAASLSEGVPETEDRKRPQFGNRFLSDPARVFHHNAWDNVKWSEEQAAAAERKVQENSSQLVCPEKQADYEVNAHKYWDDFYKVHENGFFKDRHWLFTEFPELAPSHDHLVNLHLEKQKNEVSKPRSSEDGPGLAAEQHKRPCTSHGCETRVPPVEEPVTQKLTHLEICADDFPGSSATYRILEVGCGVGNTVFPILQTNNNPDLFVYCCDFSATAIELVKTNSEYDPSRCFAFVHDLCDEDQSYPMPKDSLDVIVLIFVLSAIVPDKMQKAISKLSRLLKPGGVMLLRDYGRYDMAQLRFKKGQCLSGNFYVRGDGTRVYFFTQDELDTLFTAAGLEKVQNVVDRRLQVNRGKQLTMYRVWIQCKYSKPLVPSASQHVPTPHTTXVLRIWGFC | failed
7 | MAATAREDGASGQERGQRGCEHYDRGCLLKAPCCDKLYTCRLCHDNNEDHQLDRFKVKEVQCINCEKIQHAQQTCEECSTLFGEYYCDICHLFDKDKKQYHCENCGICRIGPKEDFFHCLKCNLCLAMNLQGRHKCIENVSRQNCPICLEDIHTSRVVAHVLPCGHLLHRTCYEEMLKEGYRCPLCMHSALDMTRYWRQLDDEVAQTPMPSEYQNMTVDILCNDCNGRSTVQFHILGMKCKICESYNTAQAGGRRISLDQQ | failed
8 | MAATASPQPLATEDADAENSSFYYYDYLDEVAFMLCRKDAVVSFGKVFLPVFYSLIFVLGLSGNLLLLMVLLRYVPRRRMVEIYLLNLAISNLLFLVTLPFWGISVAWHWVFGSFLCKMVSTLYTINFYSGIFFISCMSLDKYLEIVHAQPYHRLRTRAKNLLLATIVWAVSLAVSIPDMVFVQTHENPKGVWNYHADFGGHGTIWKLFLRFQQNLLGFLLPLLGMIFFYSRIGCVLVRLRPAGQGRALKIAAALVVAFFVLWFPYNLTLFLHTLLDLQVFGNCEVSQHLDYALQVTESIAFLHCCFSPILYAFSSHRFRQYLKAFLAAVLGWHLAPGTAQASLSSCSESSILTALEEMTGMNDLGERQSENYPNKEDVGNKSA | failed
9 | MAAVRKIHVTVKFPSKQFTVEVDRTETVSSLKDKIHIVENTPIKRMQLYYSGIELADDYRNLNEYGITEFSEIVVFLKSINRAKD | not failed
10 | MAAWVCILGQMKPDPETKPDPMRQTAQPAPQRLLRHLPLIVIVLIAVIGAITLRDYLSFDTLAANRQALLAYREAHYAALAAIFVATYVLIVAFSLPGAAVASMTGGFLFGLAVGTVLNVVAATIGAVAIFLAARAGLGAMLTARLEASEGTVKRLKEGLRRNEIEVLFLLRLVPAVPFFAANLIPALVGVKLRNYVLTTALGIVPGAIVFTWIGVGLGGVFDRGESPDLSLFREPFVIGPILGLCLLAALPIAIKALRGKPEGE | failed
11 | MACHELSALRIAIGELLEKEAHDLLHEREELAPVLGQRPELKRLAEAKTLPALEEALREALLHLEERAAQEPEEPYWRGLLLAVEAMEGRLKALRAEAEALYQDLDALHGRLHRLFPRRR | not failed
12 | MADHNNTPPFDLTKLDHYIKYQPREEAEDFFVHVEVKVLGKGSSPLEISFSTSVYEFVWEDEDCYELVELYEFFTEDAGIDAFEAQFLVNDLILYVNKTTRPLDEDFTGVFKLMAEVTLKPVQLNHAGSQKTESQQP | failed
13 | MADIIGLLLPFFGLIFIGYGAARITKQPVEAMGWLNTFIIYAALPALFFKLVSKTPVEELARMDFVAASLACTYGIFLAVFLIGRFVRRNSLAETTIQSFAASYGNIGYMGPGLALLALGEKAAVPVALIVCLENAAHFIVAPAMMAVAGGDKRSAGKLALDVARKVITHPFIVSVIAGFLAASLSWQPPEAVQRLVDYLAQSAAPCALFAMGVTLALRPMKRVPVEISYIVPAKLILHPLAAYLVLSSLGRFEPVWIYSAVLLAALPTATNVFVIGQQYHVWQERASATILISTVLSVFTLTGVVYFIQPF | failed
14 | MADIPKSPTEPNKPVDTKLQVDPNTPVDPKPPVVEPKPPVVDPKPPVVDPKPPEPTHPTITVSPKTGDILVEWYAGNGKYYSSVFFNDFYTSQKELDENALNNLTNYYSKKEDWTLVSQLNTPSKSKSVAEHKLALDNVEQILTSGEYSNERALFYLRNQMNVLNESVTTQEELQRYLSENKKDYIKSVAEKVYQTATEEKREWSNTGDVASLEQALSKFYLVTSVFESVDPALV | failed
15 | MADKEKKKKESILDLSKYIDKTIRVKFQGGREASGILKGFDPLLNLVLDGTIEYMRDPDDQYKLTEDTRQLGLVVCRGTSVVLICPQDGMEAIPNPFIQQQDA | failed
16 | MADKQPAVNRVVAALLVGGALIAAGYAIRHTVSCFLLSFVTAYLLDPVLVVMERRGVRRPWGILFLYALLAVFSVFFFIVLVPFLSLRWEAFITGLPAYLQKGKQIVFAWKSRAVPPYAVEEWRWLFDTAAGQADKLLAKLGAGVYAAAEGLVFNLFNLVLAPILVFFMLWYKKEFMETAAAWLPASRREVLLALGREVNESIGGYIRGQFMVSVIVAVLSTVALFVIGIDYPIVNGIFAGLASVLPFIGVILATLPPLFFAYVQYESGMVLLQVIGAFSVIYFLEGYLVKPLVFKESMDLNPLVTIIVVMVFGELMGFWGILLAIPIAAAVRAAADHLRRGDFRS | failed
17 | MADLTHEFWDRLEDVRSGMLGIKGQGRLIPMSPQTDDDAPGAIWFITAKGTDLAKGVAAGPQPAQFVVSDDGEGLYADLDGTLERSTDREALDEFWSFVADAWFDGGQHDPDVCLLKFTPASGEISITEGGGARFLYEIAKAHLTDETPDMGEQATVTF | not failed
18 | MADNINESEIIERLNSAPSVRGFFIATVDVFNESIDGLIQRIFRKDNFAVQSVVGPLLQDSGPLGDLSVRLKLLFGLGVLPDDIYHDIEDIIKLKNHLNSDASDYEFTDPNILEPIKKLHLVKKMGMVQLEVNEPDDDIDLEFYQLQLQRQQQIIKSGLSLAIVEICNELGK | not failed
19 | MADNKVNLSINGQSKVPPGFRFHPTEEELLHYYLRKKVNSQKIDLDVIREVDLNKLEPWDIQEECRIGSTPQNDWYFFSHKDKKYPTGTRTNRATVAGFWKATGRDKIICSCVRRIGLRKTLVFYKGRAPHGQKSDWIMHEYRLDDTPMSNGYADVVTEDPMSYNEEGWVVCRVFRKKNYQKIDDCPKITLSSLPDDTEEEKGPTFHNTQNVTGLDHVLLYMDRTGSNICMPESQTTTQHQDDVLFMQLPSLETPKSESPVDQSFLTPSKLDFSPVQEKITERPVCSNWASLDRLVAWQLNNGHHNPCHRKSFDEEEENGDTMMQRWDLHWNNDDNVDLWSSFTESSSSLDPLLHLSV | failed
20 | MADNTNVTRRSFLTATGAAAGSVALVGVSAGESDDPWNSDRSEYIVGVSNVEDDPQQHVEQYLQGQEQVGSVQERLNTAVVGLPADAPESVRKQFVDRLESRDTIKYVEQNVELQAQLVPNDPRFGDQYADQQVNAPEAWDTTTGDAGVTIGVVDQGVKYDHPDLDGNIDRSVSNGGRDFVDDDGDPYPDSLNEEIHGTHVAGIAAAEVNNGNGVTGIGNSSVIAGRALSERGSGSTADIADAITWAANEGADVINLSLGGGGYTNTMQNAVTYAANQGALVVAAAGNDGSGSVSYPAAYGGVLAVSALDPDESLASYSNYGPKIDLAAPGTNVLSTWTADDYESISGTSMATPVVAGVAGLTLAQWELSNAELRNHLKATAVDIGLSDRQQGAGRVDAANAVNTDPGSGGGGGGGGGGDSTSSSVSGSLRGRGDSNCWSFSYEYSNPSQVVIELDGPGNADFDLYANTSTNACPTTSSYEFRSWTTGSQESITIDNPDTSVDLNVLAYAYSGRGDLTVTVTEYK | failed
21 | MADPRTDNRNRKIPDAQVDAIKVPPHSLEAEQSVIGGLLLDNERWDTVSEHVMTQDFYSRPHRLIFDGVKSILEAGKPLDLITLSEYLEQREQLEDVGGFAYLADLAKNTPSAANINAYAEIVAERALVRNLIGVANEIADAGYDPQGRNAEDLLDLAESKVFAIAEARTSENEGPKNVDSILERTLERIELLYKTPQDGVTGVNTGFTDLNKKTAGLQGSDLIIVAARPSMGKTTFAMNLCENAAMEQDKPVLIFSLEMPAEQIMMRMLASLSRVDQTKIRTGQLDDEDWARISSTMGILMEKKNMYIDDSSGLTPTEVRSRARRIAREHGGLSLIMVDYLQLMRVPALTDNRTLEIAEISRSLKALAKELNVPVVALSQLNRSLEQRADKRPVNSDLRESGSIEQDADLIMFIYRDEVYHPDSPLKGTAEIIIGKQRNGPIGSVRLTFQGHYSRFDNYAGPAFDDE | not failed

Reference: a protein production outcome set (Wang et al. 2014)
